Results reported in PMC10578478.
Residue numbers refer to the chain shown, from its start.

Columns and labels:
[1] = biological target: T1, Pla1 poly(A) polymerase wild-type (Schizosaccharomyces pombe (fission …, UniProt Q10295 1-566)); experiment: fluorescence polarization
T1 sequence: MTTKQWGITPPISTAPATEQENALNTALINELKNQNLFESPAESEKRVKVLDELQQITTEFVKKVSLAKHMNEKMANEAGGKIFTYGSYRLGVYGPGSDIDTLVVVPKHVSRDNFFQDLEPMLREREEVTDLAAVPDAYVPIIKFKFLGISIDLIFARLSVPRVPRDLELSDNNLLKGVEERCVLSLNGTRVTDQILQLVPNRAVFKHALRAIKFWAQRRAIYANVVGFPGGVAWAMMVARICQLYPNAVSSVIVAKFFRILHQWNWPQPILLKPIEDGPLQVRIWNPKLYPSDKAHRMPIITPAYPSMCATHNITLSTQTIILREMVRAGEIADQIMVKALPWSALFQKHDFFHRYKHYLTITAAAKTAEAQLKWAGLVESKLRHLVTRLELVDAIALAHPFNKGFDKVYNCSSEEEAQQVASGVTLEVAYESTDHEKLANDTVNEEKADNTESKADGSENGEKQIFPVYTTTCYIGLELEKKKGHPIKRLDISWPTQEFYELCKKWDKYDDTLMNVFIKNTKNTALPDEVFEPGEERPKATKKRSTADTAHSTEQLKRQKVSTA

Pla1-Y86D = biological target: T2, Pla1-Y86D (Schizosaccharomyces pombe (fission …, UniProt Q10295 1-566, Y86D)); experiment: fluorescence polarization
T2 sequence: T1 sequence with Y86D

In the case of UUUCUGUGGCUA (ssRNA) [12-mer RNA primer], the Kd [1] is reported as about 456 nM and the binding result (Pla1-Y86D) is reported as “no binding”.
